Results on 1 molecule are retold here after publication PMC10704371.

The target of the test is T1, N-terminal DNA-binding domain (2-241) of S. pombe Fep1, 6xHis-tagged (S. pombe) (UniProt Q10134).
T1 sequence: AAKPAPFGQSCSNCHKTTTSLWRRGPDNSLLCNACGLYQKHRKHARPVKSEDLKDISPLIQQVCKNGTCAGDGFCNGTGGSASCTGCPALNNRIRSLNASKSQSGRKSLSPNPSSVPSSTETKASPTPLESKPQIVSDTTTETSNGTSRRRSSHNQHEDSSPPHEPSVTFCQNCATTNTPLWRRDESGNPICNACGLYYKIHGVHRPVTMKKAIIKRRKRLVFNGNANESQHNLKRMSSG

B1: Schizosaccharomyces pombe monothiol glutaredoxin Grx4, full length, 6xHis-tagged (natural protein)
chain: MSVEITFVEQFQEILQNGKEQIILLNFYAPWAAPCKQMNQVFDQFAKDTKNAVFLKIEAEKFSDIAESFDVNAVPLFVLIHGAKVLARISGANPQKLKAAIDEYIQPLISQISSTNASVETQVNSVQTTNTTSNTSKAPNGLDSELNERLSTLTNAHNVMLFLKGTPSEPACGFSRKLVGLLREQNVQYGFFNILADDSVRQGLKVFSDWPTFPQLYIKGEFVGGLDIVSEMIENGELQEMLPN
Regarding B1, the Kex of [2Fe-2S] cluster transfer from [2Fe-2S],Zn-Fep1-DBD to apo-Grx4 (CD-monitored titration, 5 mM GSH) was 5.3 and the Kex of [2Fe-2S] cluster transfer from [2Fe-2S],Zn-Fep1-DBD to apo-Grx4 added as a 1:1 mixture with apo-Fra2 (CD-monitored titration, 5 mM GSH) was found to be 36.1.
